The record followed here is patent publication US20230280353A1, “DETECTION SYSTEM OF INTERACTION BETWEEN KNOWN MOLECULES AND PROTEINS BASED ON COVALENT CONNECTION AND IDENTIFICATION OR VERIFICATION METHOD THEREOF” (SHANGHAI JIAO TONG UNIVERSITY, priority 2021, published 2023).

B3: CobB protein (biotin-modified, with Avi tag) (enzyme)
chain: MLSRRGHRLSRFRKNKRRLRERLRQRIFFRDKVVPEAMEKPRVLVLTGAGISAESGIRTFRAADGLWEEHRVEDVATPEGFDRDPELVQAFYNARRRQLQQPEIQPNAAHLALAKLQDALGDRFLLVTQNIDNLHERAGNTNVIHMHGELLKVRCSQSGQVLDWTGDVTPEDKCHCCQFPAPLRPHVVWFGEMPLGMDEIYMALSMADIFIAIGTSGHVYPAAGFVHEAKLHGAHTVELNLEPSQVGNEFAEKYYGPASQVVPEFVEKLLKGLKAGSIA
notes: also called biotinylated CobB protein

Data set [1] has as its target CobB protein (biotin-modified, with Avi tag) (UniProt P75960). The data set is described as follows: BLI; series 1000, 500, 250, 125, 62.5 nM; the filing does not say which partner was on the sensor.
Data set [2] shares this target. Put plainly: BLI; series 1000, 500, 250, 125 nM; the filing does not say which partner was on the sensor. Background: In BLI a coated tip is dipped into the sample, and binding shifts an interference pattern.
The next data set addresses T1, ETHR protein (Mycobacterium tuberculosis, UniProt P9WMC1).
T1 construct: Flag (C); 6×His (C); made in house; host or cells: E. coli BL21 (DE3), pET28a
In kind it is binding.

For data set [3], the system named is CSP series proteins (CSP1, CSP2, CSP3). The data set is described as follows: SPIDER verification (Western blot) of c-di-GMP and CSP series short peptides. The format is binding. The note with it: 2 μM, CSP proteins 5 μM; compared with c-di-GMP without biotinylation. How it is done: The N-terminal sequences encoding CSP1, CSP2 and CSP3 were all labeled with Flag tags and constructed on PET32a vector, which was fused with thioredoxin for expression. The recombinant vector was transformed into E. coli BL21 (DE3) strain. The CSP1, CSP2 and CSP3 proteins were obtained by adding IPTG and inducing at 37° C. for 4h when OD600 was about 0.6 in 1 L of bacteria medium. The CSP1, CSP2 and CSP3 proteins were purified by nickel column.
After that, PafA7KR (1 μM) and ATP (10 mM) were added into the system and incubated at 30° C. for 6 h. Flag antibody was used for Western blot analysis.

The test system of data set [4] is YTDHF1, YTDHF2, YTDHF3 proteins. Put plainly: SPIDER verification (immunoblot) of biotinylated m6A RNA with YTDHF1, YTDHF2, YTDHF3. The format is binding. The note with it: 0.5 μM biotinylated m6A RNA; GFP antibody. An excerpt:
The sequences of YTDHF1-GFP, YTDHF2-GFP and YTDHF3-GFP were constructed on pCDNA3.1 vector and transfected into HEK293T cells with Lipofectamine 2000 (ThermoFisher 118668).
Immunoblot analysis of GFP antibody was used.
For orientation: In western blotting, separated proteins are transferred to a membrane and probed.

The nature of data set [5]: Capture and mass spectrometry identification of m6A RNA interacting proteins. In kind it is binding. To be noted: 1 μM bait, HEK293T cell lysate. How it is done: HEK293T normal cells and SLIAC (Lys/Arg relabeled) cells were cultured and lysed with Thermo Fisher 78501 M-PER® Mammalian Protein Extraction to obtain cell lysates.
The reaction system was prepared as follows: 1 μM biotinylated m6A RNA, 5 μM SAm-Pup^E, 0.5 μM PafA7KR enzyme, 5 mM ATP, 5 mg HEK293T cell lysate or SILAC cell lysate were added, and buffer (50 mM Tris 8.0, 0.5 M NaCl, 20 mM MgCl2, 10% (v/v) Glycerol, 10 mM imidazole) was lysed to 5 ml. The system was incubated at 30° C. for 6h, and biotin agarose beads were added for incubation overnight at 4° C. Wash buffer 1 (8M urea, 50 mM Tris 8.0, 200 mM NaCl, 0.2% SDS), Wash Buffer 2 (8M urea, 50 mM Tris 8.0, 200 mM NaCl, 2% SDS), Wash buffer 3 (8M urea, 50 mM Tris 8.0, 200 mM NaCl), Wash buffer 4 (50 mM Tris 8.0, 0.5 mM EDTA, 1 mM DTT), Wash buffer 5 (50 mM NH4HCO3) were incubated at room temperature for 5 min and centrifuged at 1500 rpm for 4 min. The biotin agarose beads were transferred to a 1.5 mL centrifuge tube, centrifuged in a horizontal centrifuge with 1 mL Wash buffer 5, 1500 rpm for 4 min and washed repeatedly with Wash buffer 5 to obtain the reaction product. Trypsin was lysed and identified by mass spectrometry.

Another data set relates to CheAs protein. In kind it is binding. The note with it: CheZ 0, 0.1, 0.2, 0.4 μM; wild-type CheAs 0.2 μM.
Data set [6] addresses B3. The data set is described as follows: BLI; series 7500, 5000, 2500, 1250 nM; the filing does not say which partner was on the sensor.
The target of the next data set is T2, VacB (UniProt P21499 1-813).
T2 sequence: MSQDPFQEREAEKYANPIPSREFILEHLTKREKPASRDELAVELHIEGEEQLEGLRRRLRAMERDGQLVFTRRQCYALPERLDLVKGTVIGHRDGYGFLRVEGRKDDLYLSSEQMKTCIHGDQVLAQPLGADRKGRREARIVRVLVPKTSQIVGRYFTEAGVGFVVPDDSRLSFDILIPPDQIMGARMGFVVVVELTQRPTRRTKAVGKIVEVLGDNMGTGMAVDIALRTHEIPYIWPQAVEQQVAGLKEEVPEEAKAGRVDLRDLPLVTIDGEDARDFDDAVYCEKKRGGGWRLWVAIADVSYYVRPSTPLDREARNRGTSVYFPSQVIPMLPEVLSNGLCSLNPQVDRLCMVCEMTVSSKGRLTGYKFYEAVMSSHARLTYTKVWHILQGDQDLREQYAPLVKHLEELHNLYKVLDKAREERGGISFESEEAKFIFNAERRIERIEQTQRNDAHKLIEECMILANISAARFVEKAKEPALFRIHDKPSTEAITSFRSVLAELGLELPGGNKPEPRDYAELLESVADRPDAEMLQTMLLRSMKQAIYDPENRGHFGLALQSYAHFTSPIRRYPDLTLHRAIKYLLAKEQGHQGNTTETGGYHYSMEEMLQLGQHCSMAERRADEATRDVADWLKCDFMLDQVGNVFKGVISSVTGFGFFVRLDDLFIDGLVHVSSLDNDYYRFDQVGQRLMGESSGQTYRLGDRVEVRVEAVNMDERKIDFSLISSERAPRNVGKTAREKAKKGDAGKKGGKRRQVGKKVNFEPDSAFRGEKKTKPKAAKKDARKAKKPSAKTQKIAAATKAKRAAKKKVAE
Put plainly: BLI; series 1000, 500, 250, 125, 62.5 nM; the filing does not say which partner was on the sensor.

In data set [7] the target is CobB interacting proteins found and purified (tested by BLI, FIGS. 8B-8F). The data set is described as follows: BLI.
A further data set addresses T3, VacB, P21499.
T3 chain: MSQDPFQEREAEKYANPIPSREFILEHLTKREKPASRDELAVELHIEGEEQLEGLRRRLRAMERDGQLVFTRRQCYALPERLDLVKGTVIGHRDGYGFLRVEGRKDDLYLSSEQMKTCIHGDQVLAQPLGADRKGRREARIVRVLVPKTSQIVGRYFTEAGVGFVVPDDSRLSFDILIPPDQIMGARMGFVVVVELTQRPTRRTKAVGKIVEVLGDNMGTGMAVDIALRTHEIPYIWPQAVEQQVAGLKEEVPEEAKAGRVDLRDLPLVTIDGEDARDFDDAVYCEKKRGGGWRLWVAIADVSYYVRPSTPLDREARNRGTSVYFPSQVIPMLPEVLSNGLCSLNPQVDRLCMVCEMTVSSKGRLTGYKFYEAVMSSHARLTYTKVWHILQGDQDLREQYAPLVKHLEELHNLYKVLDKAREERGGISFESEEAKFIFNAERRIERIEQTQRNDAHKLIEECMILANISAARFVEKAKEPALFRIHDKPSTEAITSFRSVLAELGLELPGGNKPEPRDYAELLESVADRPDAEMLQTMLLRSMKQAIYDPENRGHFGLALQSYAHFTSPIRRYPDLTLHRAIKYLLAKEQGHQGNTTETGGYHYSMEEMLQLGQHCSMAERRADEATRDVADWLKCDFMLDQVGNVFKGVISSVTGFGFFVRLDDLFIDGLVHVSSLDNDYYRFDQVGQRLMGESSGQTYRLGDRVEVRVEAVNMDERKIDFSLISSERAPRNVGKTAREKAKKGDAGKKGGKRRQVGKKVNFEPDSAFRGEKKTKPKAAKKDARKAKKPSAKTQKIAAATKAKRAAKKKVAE

In the next data set the target is T4, DksA, P0ABS1.
T4 chain: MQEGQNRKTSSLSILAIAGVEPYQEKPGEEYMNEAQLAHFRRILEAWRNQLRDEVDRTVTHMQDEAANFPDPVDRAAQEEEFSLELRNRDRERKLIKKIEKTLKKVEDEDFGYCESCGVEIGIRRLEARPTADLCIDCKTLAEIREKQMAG

Another data set has as its system VacB and DksA proteins. Put plainly: CobB deacetylation of VacB and DksA (Western blot, acetylation antibody). The format is biochemical. To be noted: VacB and DksA co-incubated with CobB. The protocol:
CobB has the activity of deacetylase. CobB was co-incubated with VacB and DksA proteins, and the acetylation level of protein was detected by Western blot analysis of acetylation antibody.

As usually defined, the Kd is the concentration at which binding is half-saturated. For orientation: koff means a measure of how fast the partners let go of each other. High values mean fast dissociation, low ones slow dissociation. Take RoxA: in [1], the Kd amounted to 103 nM and the koff worked out at 0.00124 s⁻¹.
Regarding RraA, in data set [2], the Kd is 24.6 nM and the koff worked out at 0.000201 s⁻¹.
Consider GldA, for which, in [1], the Kd worked out at 59.4 nM and the koff is 0.000295 s⁻¹.
With `Nc1nc2c(ncn2[C@@H]2O[C@@H]3COP(=O)(O)O[C@H]4[C@@H](O)[C@H](n5cnc6c(=O)[nH]c(N)nc65)O[C@@H]4COP(=O)(O)O[C@H]3[C@H]2O)c(=O)[nH]1` [c-di-GMP], the “complex bands with excessive non-biotinylated competitor” value at ETHR protein (excessive non-biotinylated c-di-GMP added to compete with biotinylated c-di-GMP) is on record as “the complex bands were basically unchanged”.
Turning to biotinylated c-di-GMP, the “migration of CSP series protein bands” value in data set [3] is “migrated significantly”. In addition, the “complex band of ETHR and SAm-Pup^E monomer” value at ETHR protein was “the detected complex bands become thicker”.
Take “biotinylated m6A RNA: 5′-terminal biotin-modified m6A RNA, sequence CGUCUCGGCUCGGCUGCU (SEQ ID NO: 8) (5' biotin, m6A modification, chemistry not fully specified)”: in data set [4], the “protein-SAm-Pup^E complex bands” value is listed as “presence of complex bands only in the presence of biotinylated m6A RNA”. Further, in [5], the “binding proteins obtained by mass spectrometry” value was “YTDHF1, YTDHF2 and YTDHF3”.

B1: CheZ: biotin-modified protein CheZ with Avi tag (protein)
chain: MMQPSIKPADEHSAGDIIARIGSLTRMLRDSLRELGLDQAIAEAAEAIPDARDRLYYVVQMTAQAAERALNSVEASQPHQDQMEKSAKALTQRWDDWFADPIDLADARELVTDTRQFLADVPAHTSFTNAQLLEIMMAQDFQDLTGQVIKRMMDVIQEIERQLLMVLLENIPEQESRPKRENQSLLNGPQVDTSKAGVVASQDQVDDLLDSLGF
Regarding B1, in the data set with CheAs protein, the “complex bands of CheAs and SAm-Pup^E monomer” value is reported as “the detected complex bands become thicker”.

B2: DksA (other)
chain: MQEGQNRKTSSLSILAIAGVEPYQEKPGEEYMNEAQLAHFRRILEAWRNQLRDEVDRTVTHMQDEAANFPDPVDRAAQEEEFSLELRNRDRERKLIKKIEKTLKKVEDEDFGYCESCGVEIGIRRLEARPTADLCIDCKTLAEIREKQMAG
In [6], B2 had a Kd of 772 nM and a dissociation rate constant (koff) of 0.00167 s⁻¹.
In the data set with VacB, B3 had a Kd of 156 nM and a koff of 0.00163 s⁻¹. For the same molecule, the Kd in data set [7] lay in the range of 25 to 772 nM. In the data set with VacB, P21499, the “acetylation level of VacB (IB: Ac-K), with and without CobB” value was “Ac-K band clear without CobB, almost gone with CobB; His (VacB) bands alike in both lanes; biotin-CobB band only in the + lane”; the “acetylation level of protein detected by Western blot analysis of acetylation antibody” value is listed as “the acetylation level of a group of proteins added with CobB decreased obviously”. Moreover, in the data set with DksA, P0ABS1, the “acetylation level of DksA (IB: Ac-K), with and without CobB” value was “Ac-K band seen without CobB, not seen with CobB; His (DksA) bands alike in both lanes; biotin-CobB band only in the + lane”; the “acetylation level of protein detected by Western blot analysis of acetylation antibody” value is “the acetylation level of a group of proteins added with CobB decreased obviously”.

B4: CobB: Biotin-modified CobB protein with Avi tag; has deacetylase activity (protein)
chain: MLSRRGHRLSRFRKNKRRLRERLRQRIFFRDKVVPEAMEKPRVLVLTGAGISAESGIRTFRAADGLWEEHRVEDVATPEGFDRDPELVQAFYNARRRQLQQPEIQPNAAHLALAKLQDALGDRFLLVTQNIDNLHERAGNTNVIHMHGELLKVRCSQSGQVLDWTGDVTPEDKCHCCQFPAPLRPHVVWFGEMPLGMDEIYMALSMADIFIAIGTSGHVYPAAGFVHEAKLHGAHTVELNLEPSQVGNEFAEKYYGPASQVVPEFVEKLLKGLKAGSIA
Regarding B4, in the data set with VacB and DksA proteins, the “acetylation level of protein” value was “decreased obviously”.
